We go through one molecule from paper PMC9076686, “Calcium bursts allow rapid reorganization of EFhD2/Swip-1 cross-linked actin networks in epithelial wound closure” (Nature Communications, 2022).

Assay [1] concerns the target T1, Actin from rabbit skeletal muscle (F-actin) (rabbit, UniProt P68135 1-377). As to the kind of experiment: co-sedimentation; high-speed pelleting at 200,000 x g, 4 °C, 1 h; 8 µM G-actin polymerised with increasing Swip-1 in 1x KMI (10 mM imidazole pH 7.0, 50 mM KCl, 1 mM MgCl2) with 1 mM CaCl2 for 2 h at 4 °C; presence of calcium; fit to independent, identical binding sites. To be noted: both partners purified.

Assay [2] addresses T1, Actin from rabbit skeletal muscle …. The assay is described as follows: co-sedimentation; high-speed pelleting at 200,000 x g, 4 °C, 1 h; 8 µM G-actin polymerised with increasing Swip-1 in 1x KMEI (10 mM imidazole pH 7.0, 50 mM KCl, 1 mM MgCl2, 1 mM EGTA) for 2 h at 4 °C; absence of calcium; fit to independent, identical binding sites. The conditions noted are these: both partners purified.

Broadly, the Kd is the constant that tells how readily two partners part at equilibrium.

B1: Drosophila Swip-1 (EFhD2/Swip-1), recombinant wild type (natural protein)
chain: MSVSSNASSASNKDSVDSPSSTTNTDSSELTHILNRRQEIMESQEAGIEVRRTYKVVNVYTDFPEFSRNQIKDYQKTFNTYDTARDGFLDLQELKFMMEKLGAPQTHLGLKQMIAEVDEDNDGKISFREFLLIFRKAQAGELDSDSGLNQLARLTEVDVEQVGVSGAKNFFEAKIEQQLRTNKFHDEIRAEQEERRREEEERAQRRQQFQQRAAIFQ
notes: residues left after PreScission cleavage are not described; source: E. coli Rossetta 2, purified (glutathione agarose, GST cleaved by PreScission protease, size-exclusion chromatography)
B1: in assay [1], the Kd worked out at 900 ± 100 nM and the “stoichiometry N” value was ~0.5 Swip-1:actin. For the same molecule, in assay [2], the Kd amounted to 4300 ± 1300 nM and the “stoichiometry N” value is ~1 Swip-1:actin.
